Data published in publication PMC6877725, “Identification of the periplasmic DNA receptor for natural transformation of Helicobacter pylori”.

Assays:
ComH-His6 [1] = molecular target: T1, ComH-His6 (Helicobacter pylori 26695, UniProt O26055 20-479); assay: MST; settings: 10 mM MgCl2, 150 mM NaCl; EMSA: 10 mM Tris-HCl pH 7.5, 50 mM KCl, ~100 mM NaCl, 0.1 mM MgCl2, 1 mM DTT, 0.1 µg/µl BSA, on ice 30 min; MST and SV-AUC (20 °C): 50 mM Tris-HCl pH 7.4 …
T1 sequence: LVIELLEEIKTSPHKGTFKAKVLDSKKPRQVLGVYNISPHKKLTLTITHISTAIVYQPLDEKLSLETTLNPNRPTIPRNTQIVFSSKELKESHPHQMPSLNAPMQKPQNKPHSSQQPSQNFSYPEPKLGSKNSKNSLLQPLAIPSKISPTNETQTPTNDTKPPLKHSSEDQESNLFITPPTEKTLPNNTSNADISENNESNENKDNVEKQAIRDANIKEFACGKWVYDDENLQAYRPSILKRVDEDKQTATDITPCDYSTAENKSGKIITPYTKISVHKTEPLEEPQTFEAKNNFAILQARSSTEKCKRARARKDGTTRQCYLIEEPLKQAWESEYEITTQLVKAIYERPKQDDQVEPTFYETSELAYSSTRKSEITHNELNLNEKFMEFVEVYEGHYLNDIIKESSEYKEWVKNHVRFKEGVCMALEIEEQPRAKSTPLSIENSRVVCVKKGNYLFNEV

ComH-NTD-His6 [2] = molecular target: T2, ComH-NTD-His6 (Helicobacter pylori 26695, UniProt O26055 20-169); assay: MST; settings: 10 mM MgCl2, 150 mM NaCl; EMSA: 10 mM Tris-HCl pH 7.5, 50 mM KCl, ~100 mM NaCl, 0.1 mM MgCl2, 1 mM DTT, 0.1 µg/µl BSA, on ice 30 min; MST and SV-AUC (20 °C): 50 mM Tris-HCl pH 7.4 …
T2 sequence: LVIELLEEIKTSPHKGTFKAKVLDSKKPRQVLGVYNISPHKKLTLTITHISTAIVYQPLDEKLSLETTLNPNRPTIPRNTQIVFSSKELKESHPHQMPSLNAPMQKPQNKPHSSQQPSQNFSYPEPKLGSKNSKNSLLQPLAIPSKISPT

ComH-CTD-His6 [3] = molecular target: T3, ComH-CTD-His6 (Helicobacter pylori 26695, UniProt O26055 170-479); assay: MST; settings: 10 mM MgCl2, 150 mM NaCl; EMSA: 10 mM Tris-HCl pH 7.5, 50 mM KCl, ~100 mM NaCl, 0.1 mM MgCl2, 1 mM DTT, 0.1 µg/µl BSA, on ice 30 min; MST and SV-AUC (20 °C): 50 mM Tris-HCl pH 7.4 …
T3 sequence: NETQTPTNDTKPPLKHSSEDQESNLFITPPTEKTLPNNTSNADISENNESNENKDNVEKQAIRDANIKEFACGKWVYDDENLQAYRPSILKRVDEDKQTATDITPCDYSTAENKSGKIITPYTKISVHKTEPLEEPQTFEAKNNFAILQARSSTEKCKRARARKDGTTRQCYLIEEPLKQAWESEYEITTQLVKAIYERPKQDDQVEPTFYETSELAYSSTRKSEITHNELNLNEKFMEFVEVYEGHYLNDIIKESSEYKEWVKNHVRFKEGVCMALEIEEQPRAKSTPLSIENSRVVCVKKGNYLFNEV

ComH-His6 [4] = molecular target: T1, ComH-His6; assay: SV-AUC; settings: EMSA: 10 mM Tris-HCl pH 7.5, 50 mM KCl, ~100 mM NaCl, 0.1 mM MgCl2, 1 mM DTT, 0.1 µg/µl BSA, on ice 30 min; MST and SV-AUC (20 °C): 50 mM Tris-HCl pH 7.4 …
ComH-His6 [5] = molecular target: T1, ComH-His6; assay: SV-AUC; settings: EMSA: 10 mM Tris-HCl pH 7.5, 50 mM KCl, ~100 mM NaCl, 0.1 mM MgCl2, 1 mM DTT, 0.1 µg/µl BSA, on ice 30 min; MST and SV-AUC (20 °C): 50 mM Tris-HCl pH 7.4 …; remark: listed apart in the source
ComH-His6 [6] = molecular target: T1, ComH-His6; assay: EMSA; 0.5-2 µM protein; EMSA: 10 mM Tris-HCl pH 7.5, 50 mM KCl, ~100 mM NaCl, 0.1 mM MgCl2, 1 mM DTT, 0.1 µg/µl BSA, on ice 30 min; MST and SV-AUC (20 °C): 50 mM Tris-HCl pH 7.4, 150 mM NaCl, 10 mM MgCl2, 0.05% Tween20; SPR: PBS + 0.005% Tween20, 25 °C; settings: protein: recombinant, tags: C-terminal His6
ComH-NTD-His6 [7] = molecular target: T2, ComH-NTD-His6; assay: EMSA; basically no binding, 0.5-2 µM protein; EMSA: 10 mM Tris-HCl pH 7.5, 50 mM KCl, ~100 mM NaCl, 0.1 mM MgCl2, 1 mM DTT, 0.1 µg/µl BSA, on ice 30 min; MST and SV-AUC (20 °C): 50 mM Tris-HCl pH 7.4, 150 mM NaCl, 10 mM MgCl2, 0.05% Tween20; SPR: PBS + 0.005% Tween20, 25 °C; settings: protein: recombinant, tags: C-terminal His6
ComH-CTD-His6 [8] = molecular target: T3, ComH-CTD-His6; assay: EMSA; essentially no affinity, 0.5-2 µM protein; EMSA: 10 mM Tris-HCl pH 7.5, 50 mM KCl, ~100 mM NaCl, 0.1 mM MgCl2, 1 mM DTT, 0.1 µg/µl BSA, on ice 30 min; MST and SV-AUC (20 °C): 50 mM Tris-HCl pH 7.4, 150 mM NaCl, 10 mM MgCl2, 0.05% Tween20; SPR: PBS + 0.005% Tween20, 25 °C; settings: protein: recombinant; tags: C-terminal His6; label: 5'-Cy5
ComH-CTD-His6 [9] = molecular target: T3, ComH-CTD-His6; assay: EMSA; 0.5-2 µM protein; EMSA: 10 mM Tris-HCl pH 7.5, 50 mM KCl, ~100 mM NaCl, 0.1 mM MgCl2, 1 mM DTT, 0.1 µg/µl BSA, on ice 30 min; MST and SV-AUC (20 °C): 50 mM Tris-HCl pH 7.4, 150 mM NaCl, 10 mM MgCl2, 0.05% Tween20; SPR: PBS + 0.005% Tween20, 25 °C; settings: protein: recombinant; tags: C-terminal His6; label: 5'-Cy5 on strand 1; blunt
ComH-His6 [10] = molecular target: T1, ComH-His6; assay: SPR; no satisfactory fit; EMSA: 10 mM Tris-HCl pH 7.5, 50 mM KCl, ~100 mM NaCl, 0.1 mM MgCl2, 1 mM DTT, 0.1 µg/µl BSA, on ice 30 min; MST and SV-AUC (20 °C): 50 mM Tris-HCl pH 7.4, 150 mM NaCl, 10 mM MgCl2, 0.05% Tween20; SPR: PBS + 0.005% Tween20, 25 °C; settings: protein: recombinant; tags: C-terminal His6; label: 5'-biotin on strand 1; blunt
[11] = label: 5'-Cy5 on strand 1, blunt

## 18 bp dsDNA-FAM
ComH-His6 [1]
  Kd: 50 nM
ComH-NTD-His6 [2]
  Kd: > 40000 nM
ComH-CTD-His6 [3]
  Kd: 3400 nM
ComH-His6 [4]
  Kd: 300 nM
ComH-His6 [5]
  Kd: 100 nM

## TAGCATCGATCAGTCCTC (ssDNA) [18-mer ssDNA (Cy5-PNK1)]
ComH-His6 [6]; label: 5'-Cy5
  binding result: no binding
ComH-NTD-His6 [7]; label: 5'-Cy5
  binding result: no binding
ComH-CTD-His6 [8]
  binding result: no binding

B1: 18 bp dsDNA (Cy5-PNK1 + cPNK1) (dsDNA)
DNA 1: TAGCATCGATCAGTCCTC
DNA 2: GAGGACTGATCGATGCTA
ComH-His6 [6]; [11]
  binding result: binds
ComH-CTD-His6 [9]
  binding result: binds
ComH-NTD-His6 [7]; [11]
  binding result: no binding

B2: 50 bp dsDNA (Op249 + Op250) (dsDNA)
DNA 1: GTAGTGCTGTAGGAGAATATACGGGCTGCTCGTGTTGACAAGTACTGATG
DNA 2: CATCAGTACTTGTCAACACGAGCAGCCCGTATATTCTCCTACAGCACTAC
ComH-His6 [10]
  binding result: binds
